Substrate in the series “purified protein”: O=C(O)/C=C(/CC(=O)O)C(=O)O
Description: purified protein. The format is biochemical, Homo sapiens. Conditions: active site.

Series [1] deals with the molecule itself. Description: crystal structure; crystals of apo and citraconate-bound hACOD1 (4-461) grown in conditions containing calcium acetate; solved by molecular replacement with PDB 6R6U; two protomers (chains A and B) form the dimer.

For orientation: Km means the substrate concentration at which the rate is half of its maximum. One may read the stoichiometry N as a count of units in the complex or per binding partner.

B1: Human aconitate decarboxylase 1 (hACOD1), residues 4-461 (enzyme, UniProt A6NK06 4-461, looked up)
chain: KSITESFATAIHGLKVGHLTDRVIQRSKRMILDTLGAGFLGTTTEVFHIASQYSKIYSSNISSTVWGQPDIRLPPTYAAFVNGVAIHSMDFDDTWHPATHPSGAVLPVLTALAEALPRSPKFSGLDLLLAFNVGIEVQGRLLHFAKEANDMPKRFHPPSVVGTLGSAAAASKFLGLSSTKCREALAIAVSHAGAPMANAATQTKPLHIGNAAKHGIEAAFLAMLGLQGNKQVLDLEAGFGAFYANYSPKVLPSIASYSWLLDQQDVAFKRFPAHLSTHWVADAAASVRKHLVAERALLPTDYIKRIVLRIPNVQYVNRPFPVSEHEARHSFQYVACAMLLDGGITVPSFHECQINRPQVRELLSKVELEYPPDNLPSFNILYCEISVTLKDGATFTDRSDTFYGHWRKPLSQEDLEEKFRANASKMLSWDTVESLIKIVKNLEDLEDCSVLTTLLKGP
notes: The tag actually on the construct is therefore uncertain; also called hIRG1; hACOD1 (4-461); source: E. coli BL21-CodonPlus (RIPL), purified (StrepTactin column, TEV protease, SEC)
As for B1, the Km in the series “purified protein” was 9.3 ± 2.1 mM. Moreover, the “stoichiometry N” value in series [1] was 2.
